# The supplement of paper PMC10065799, “High-throughput profiling of sequence recognition by tyrosine kinases and SH2 domains using bacterial peptide display” (eLife, 2023)
# Target: FGFR1 (UniProt P11362)
# Experiment: phosphorylation enrichment, bacterial display (enrichment ratio); higher = better substrate or ligand; peptides without Tyr show the background
# 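Also: 11-residue human phosphosite peptides and single-mutation variants displayed on the E. coli surface, counted by deep sequencing, each peptide's frequency after selection divided by its frequency in the unselected input library; frequency after pTyr selection over input frequency; kinase dosed for 20-30% of maximal phosphorylation in three min.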
# Sequence of FGFR1 (P11362 whole entry, looked up): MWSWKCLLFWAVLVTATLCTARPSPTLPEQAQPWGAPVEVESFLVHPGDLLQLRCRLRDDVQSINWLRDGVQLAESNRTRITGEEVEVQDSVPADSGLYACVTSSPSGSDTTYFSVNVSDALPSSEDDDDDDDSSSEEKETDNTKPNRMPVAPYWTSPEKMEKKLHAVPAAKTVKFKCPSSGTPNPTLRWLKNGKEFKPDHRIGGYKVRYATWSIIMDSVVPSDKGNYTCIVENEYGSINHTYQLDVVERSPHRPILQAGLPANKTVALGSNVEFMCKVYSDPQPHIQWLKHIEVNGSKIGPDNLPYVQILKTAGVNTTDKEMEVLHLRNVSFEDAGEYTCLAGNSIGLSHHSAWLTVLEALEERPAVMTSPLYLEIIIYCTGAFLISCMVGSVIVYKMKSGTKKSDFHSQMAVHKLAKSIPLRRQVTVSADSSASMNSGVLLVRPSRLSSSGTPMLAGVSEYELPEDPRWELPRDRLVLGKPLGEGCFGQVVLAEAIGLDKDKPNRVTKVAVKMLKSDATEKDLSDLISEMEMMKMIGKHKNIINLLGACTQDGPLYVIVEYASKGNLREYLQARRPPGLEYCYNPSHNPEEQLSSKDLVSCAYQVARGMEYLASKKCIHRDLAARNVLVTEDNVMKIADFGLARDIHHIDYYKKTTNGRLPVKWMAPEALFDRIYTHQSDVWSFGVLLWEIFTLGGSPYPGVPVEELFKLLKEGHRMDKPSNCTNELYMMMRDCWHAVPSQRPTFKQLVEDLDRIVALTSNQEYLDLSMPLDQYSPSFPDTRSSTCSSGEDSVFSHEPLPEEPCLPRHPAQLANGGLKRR
row,Sequence,phosphorylation enrichment
1,AKRKGYDMRVD [NEB_Y2770],0.292
2,NDPMEYAKQHG [ASS1_Y163_L160P],0.415
3,KPGVNYFFRVS,0.376
4,PPLMLYNPTTF [EGFR_Y270_YF],0.731
5,YEEDSYSHIMA [FDPS_Y388],1.35
6,QEALEYFMKQV [PIK3CA_Y1038_M1043V],0.408
7,IRFPPYTDWNQ [ALDH3B2_Y365_H361R_YF],0.54
8,RQRTAYFSLNT [CDH1_Y68_D72N],0.586
9,SLFNGYVYSGM [NEIL3_Y71_V76M],0.585
10,IVFTSYFLTIL [TAS2R16_Y239],0.641
11,IENKPYGMSDP [RET_Y1062_L1061P],0.504
12,KLSCSYSHWSA [C4BPA_Y470],0.793
13,ATATEYHTTSH [SLC4A1_Y46_D45E],0.456
14,PTKNDYWAMPA [WWOX_Y287_L291P],20.6
15,AQESNYRLLRR [SLC20A2_Y377],0.409
16,RLEPVYFVAPA [LAMC2_Y250_D247E],9.12
17,RPPFTYATLIH [FOXP3_Y342_R347H],0.641

row,Sequence,phosphorylation enrichment
1,FNNPAYFVLEG [INPPL1_Y986_YF],7.65
2,SVVVPYEPPEL [TP53_Y220_V225L],0.459
3,VTRLWYPVCFG [ITK_Y336_R335W],1.11
4,LQTYRYHGHSM [PDHA1_Y289],0.323
5,WDLPEYSFKDP [ITGA3_Y237_S235P_YF],0.486
6,DLDPNYVLSSR [CKM_Y125],0.465
7,NVADHYRVYKP [ATP6V0D2_Y271_G272R],0.489
8,VKANTYEKYWL [GATM_Y100_P105L],0.582
9,GSERDYTFDEL [EIF2S2_Y174_E177D_YF],0.583
10,KNSSIYVVANI [VNN1_Y134_N131S],0.528
11,HLPAGYIIPLQ [GAA_Y822_R819P],0.443
12,LAETSYVTVLE [MAGEA1_Y276_K278T],0.915
13,PDSVDYPKKGY [CTSK_Y121_R122P],0.56
14,VEYAKYGSLQG [RET_Y809_R813Q],0.549
15,DDKEYYSVHNK [MET_Y1235_Y1230D],1.6
16,NAMRRYIEEFQ [MNS1_Y244],0.458

# Target: EPHB2 (UniProt P29323)
# Sequence (P29323 whole entry, looked up): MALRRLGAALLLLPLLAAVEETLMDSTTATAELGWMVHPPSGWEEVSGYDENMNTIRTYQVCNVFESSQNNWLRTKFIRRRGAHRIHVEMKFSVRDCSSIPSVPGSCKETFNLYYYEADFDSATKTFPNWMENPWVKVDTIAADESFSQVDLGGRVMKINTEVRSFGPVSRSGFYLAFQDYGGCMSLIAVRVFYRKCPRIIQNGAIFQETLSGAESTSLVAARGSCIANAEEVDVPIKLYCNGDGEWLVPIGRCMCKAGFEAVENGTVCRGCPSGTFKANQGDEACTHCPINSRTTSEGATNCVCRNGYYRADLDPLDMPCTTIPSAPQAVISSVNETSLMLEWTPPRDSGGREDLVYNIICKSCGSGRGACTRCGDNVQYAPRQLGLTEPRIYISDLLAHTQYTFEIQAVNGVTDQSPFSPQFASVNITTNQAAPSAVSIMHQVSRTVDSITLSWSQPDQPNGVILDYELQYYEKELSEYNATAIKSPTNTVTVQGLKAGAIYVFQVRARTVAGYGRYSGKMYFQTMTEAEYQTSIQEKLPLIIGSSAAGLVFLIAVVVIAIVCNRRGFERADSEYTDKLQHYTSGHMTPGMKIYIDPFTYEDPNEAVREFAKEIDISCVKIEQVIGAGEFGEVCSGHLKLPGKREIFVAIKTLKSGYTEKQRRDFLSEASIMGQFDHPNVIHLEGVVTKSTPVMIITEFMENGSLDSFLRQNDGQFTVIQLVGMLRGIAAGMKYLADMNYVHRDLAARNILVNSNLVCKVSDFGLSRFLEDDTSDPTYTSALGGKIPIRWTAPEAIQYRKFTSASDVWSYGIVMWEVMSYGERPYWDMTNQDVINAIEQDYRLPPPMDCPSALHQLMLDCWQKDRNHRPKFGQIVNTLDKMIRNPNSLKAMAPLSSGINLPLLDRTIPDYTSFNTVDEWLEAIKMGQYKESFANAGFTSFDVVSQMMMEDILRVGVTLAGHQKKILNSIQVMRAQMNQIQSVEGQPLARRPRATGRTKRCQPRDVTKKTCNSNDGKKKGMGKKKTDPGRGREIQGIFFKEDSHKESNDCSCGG
# Experiment: as above
row,Sequence,phosphorylation enrichment
1,AKRKGYDMRVD [NEB_Y2770],0.339
2,NDPMEYAKQHG [ASS1_Y163_L160P],0.485
3,KPGVNYFFRVS,0.472
4,PPLMLYNPTTF [EGFR_Y270_YF],0.891
5,YEEDSYSHIMA [FDPS_Y388],0.714
6,QEALEYFMKQV [PIK3CA_Y1038_M1043V],0.392
7,IRFPPYTDWNQ [ALDH3B2_Y365_H361R_YF],0.392
8,RQRTAYFSLNT [CDH1_Y68_D72N],0.68
9,SLFNGYVYSGM [NEIL3_Y71_V76M],0.579
10,IVFTSYFLTIL [TAS2R16_Y239],0.709
11,IENKPYGMSDP [RET_Y1062_L1061P],0.508
12,KLSCSYSHWSA [C4BPA_Y470],0.771
13,ATATEYHTTSH [SLC4A1_Y46_D45E],0.55
14,PTKNDYWAMPA [WWOX_Y287_L291P],14.4
15,AQESNYRLLRR [SLC20A2_Y377],0.498
16,RLEPVYFVAPA [LAMC2_Y250_D247E],6.76
17,RPPFTYATLIH [FOXP3_Y342_R347H],0.753

row,Sequence,phosphorylation enrichment
1,FNNPAYFVLEG [INPPL1_Y986_YF],0.588
2,SVVVPYEPPEL [TP53_Y220_V225L],0.524
3,VTRLWYPVCFG [ITK_Y336_R335W],0.699
4,LQTYRYHGHSM [PDHA1_Y289],0.337
5,WDLPEYSFKDP [ITGA3_Y237_S235P_YF],0.571
6,DLDPNYVLSSR [CKM_Y125],0.636
7,NVADHYRVYKP [ATP6V0D2_Y271_G272R],0.574
8,VKANTYEKYWL [GATM_Y100_P105L],0.5
9,GSERDYTFDEL [EIF2S2_Y174_E177D_YF],0.564
10,KNSSIYVVANI [VNN1_Y134_N131S],0.64
11,HLPAGYIIPLQ [GAA_Y822_R819P],0.28
12,LAETSYVTVLE [MAGEA1_Y276_K278T],0.968
13,PDSVDYPKKGY [CTSK_Y121_R122P],0.951
14,VEYAKYGSLQG [RET_Y809_R813Q],0.438
15,DDKEYYSVHNK [MET_Y1235_Y1230D],0.629
16,NAMRRYIEEFQ [MNS1_Y244],0.459

# Target: FGFR3 (UniProt P22607)
# Sequence (P22607 whole entry, looked up): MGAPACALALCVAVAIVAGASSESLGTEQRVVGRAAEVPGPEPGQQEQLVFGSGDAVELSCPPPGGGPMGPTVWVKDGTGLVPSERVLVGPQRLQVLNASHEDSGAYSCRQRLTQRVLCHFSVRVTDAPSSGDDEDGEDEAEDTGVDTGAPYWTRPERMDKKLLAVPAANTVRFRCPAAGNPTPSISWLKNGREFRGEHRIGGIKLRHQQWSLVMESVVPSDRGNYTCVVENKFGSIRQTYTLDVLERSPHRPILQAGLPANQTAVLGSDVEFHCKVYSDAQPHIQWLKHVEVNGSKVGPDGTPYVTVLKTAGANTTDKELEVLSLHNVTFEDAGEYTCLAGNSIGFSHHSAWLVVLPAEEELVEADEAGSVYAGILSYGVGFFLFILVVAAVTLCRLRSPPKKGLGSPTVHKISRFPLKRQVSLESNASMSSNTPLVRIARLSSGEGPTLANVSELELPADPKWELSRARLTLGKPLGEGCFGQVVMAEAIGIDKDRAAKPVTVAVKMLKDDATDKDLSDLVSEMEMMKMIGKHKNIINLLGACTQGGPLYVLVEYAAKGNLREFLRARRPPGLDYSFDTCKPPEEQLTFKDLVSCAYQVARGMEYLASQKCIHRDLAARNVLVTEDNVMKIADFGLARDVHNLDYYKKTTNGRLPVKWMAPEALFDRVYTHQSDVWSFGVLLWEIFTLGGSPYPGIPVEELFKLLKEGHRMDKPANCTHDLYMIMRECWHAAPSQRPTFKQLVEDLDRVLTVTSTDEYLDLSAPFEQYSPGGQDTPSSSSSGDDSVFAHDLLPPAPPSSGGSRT
# Experiment: as above
row,Sequence,phosphorylation enrichment
1,AKRKGYDMRVD [NEB_Y2770],0.297
2,NDPMEYAKQHG [ASS1_Y163_L160P],0.527
3,KPGVNYFFRVS,0.697
4,PPLMLYNPTTF [EGFR_Y270_YF],0.857
5,YEEDSYSHIMA [FDPS_Y388],1.18
6,QEALEYFMKQV [PIK3CA_Y1038_M1043V],0.565
7,IRFPPYTDWNQ [ALDH3B2_Y365_H361R_YF],0.493
8,RQRTAYFSLNT [CDH1_Y68_D72N],0.745
9,SLFNGYVYSGM [NEIL3_Y71_V76M],0.659
10,IVFTSYFLTIL [TAS2R16_Y239],0.976
11,IENKPYGMSDP [RET_Y1062_L1061P],0.599
12,KLSCSYSHWSA [C4BPA_Y470],0.91
13,ATATEYHTTSH [SLC4A1_Y46_D45E],0.309
14,PTKNDYWAMPA [WWOX_Y287_L291P],16.3
15,AQESNYRLLRR [SLC20A2_Y377],0.527
16,RLEPVYFVAPA [LAMC2_Y250_D247E],8.72
17,RPPFTYATLIH [FOXP3_Y342_R347H],1.16

row,Sequence,phosphorylation enrichment
1,FNNPAYFVLEG [INPPL1_Y986_YF],5.18
2,SVVVPYEPPEL [TP53_Y220_V225L],0.666
3,VTRLWYPVCFG [ITK_Y336_R335W],1.36
4,LQTYRYHGHSM [PDHA1_Y289],0.395
5,WDLPEYSFKDP [ITGA3_Y237_S235P_YF],0.836
6,DLDPNYVLSSR [CKM_Y125],0.714
7,NVADHYRVYKP [ATP6V0D2_Y271_G272R],0.479
8,VKANTYEKYWL [GATM_Y100_P105L],0.541
9,GSERDYTFDEL [EIF2S2_Y174_E177D_YF],0.871
10,KNSSIYVVANI [VNN1_Y134_N131S],0.873
11,HLPAGYIIPLQ [GAA_Y822_R819P],0.444
12,LAETSYVTVLE [MAGEA1_Y276_K278T],1.31
13,PDSVDYPKKGY [CTSK_Y121_R122P],0.654
14,VEYAKYGSLQG [RET_Y809_R813Q],0.539
15,DDKEYYSVHNK [MET_Y1235_Y1230D],1.51
16,NAMRRYIEEFQ [MNS1_Y244],0.501

# Test system: c-Abl (mouse)
# Experiment: as above
row,Sequence,phosphorylation enrichment
1,AKRKGYDMRVD [NEB_Y2770],0.42
2,NDPMEYAKQHG [ASS1_Y163_L160P],0.718
3,KPGVNYFFRVS,0.73
4,PPLMLYNPTTF [EGFR_Y270_YF],0.79
5,YEEDSYSHIMA [FDPS_Y388],0.663
6,QEALEYFMKQV [PIK3CA_Y1038_M1043V],0.597
7,IRFPPYTDWNQ [ALDH3B2_Y365_H361R_YF],0.45
8,RQRTAYFSLNT [CDH1_Y68_D72N],0.77
9,SLFNGYVYSGM [NEIL3_Y71_V76M],0.625
10,IVFTSYFLTIL [TAS2R16_Y239],1.05
11,IENKPYGMSDP [RET_Y1062_L1061P],0.549
12,KLSCSYSHWSA [C4BPA_Y470],1.15
13,ATATEYHTTSH [SLC4A1_Y46_D45E],0.487
14,PTKNDYWAMPA [WWOX_Y287_L291P],1.39
15,AQESNYRLLRR [SLC20A2_Y377],0.984
16,RLEPVYFVAPA [LAMC2_Y250_D247E],9.14
17,RPPFTYATLIH [FOXP3_Y342_R347H],0.922

row,Sequence,phosphorylation enrichment
1,FNNPAYFVLEG [INPPL1_Y986_YF],0.816
2,SVVVPYEPPEL [TP53_Y220_V225L],0.54
3,VTRLWYPVCFG [ITK_Y336_R335W],0.89
4,LQTYRYHGHSM [PDHA1_Y289],0.411
5,WDLPEYSFKDP [ITGA3_Y237_S235P_YF],0.871
6,DLDPNYVLSSR [CKM_Y125],0.528
7,NVADHYRVYKP [ATP6V0D2_Y271_G272R],0.703
8,VKANTYEKYWL [GATM_Y100_P105L],0.644
9,GSERDYTFDEL [EIF2S2_Y174_E177D_YF],0.837
10,KNSSIYVVANI [VNN1_Y134_N131S],1.07
11,HLPAGYIIPLQ [GAA_Y822_R819P],0.363
12,LAETSYVTVLE [MAGEA1_Y276_K278T],0.903
13,PDSVDYPKKGY [CTSK_Y121_R122P],0.544
14,VEYAKYGSLQG [RET_Y809_R813Q],0.523
15,DDKEYYSVHNK [MET_Y1235_Y1230D],0.942
16,NAMRRYIEEFQ [MNS1_Y244],0.541
